Consider 21 molecules from patent US20180155451A1 (published 2018).

B1: GpH7-B3 variant S337_08L/GpL16-k0 (antibody, human IgG1, kappa)
heavy: not shown
light: DIVMTQSPLSLPVTPGEPASISCQASESLVHSNRNTYLHWYLQKPGQSPQLLIYKVSNRFSGVPDRFSGSGSGTDFTLKISRVEAEDVGVYYCSQNTHVPPTFGQGTKVEIERTVAAPSVFIFPPSDEQLKSGTASVVCLLNNFYPREAKVQWKVDNALQSGNSQESVTEQDSKDSTYSLSSTLTLSKADYEKHKVYACEVTHQGLSSPVTKSFNRGEC
notes: homodimerized, mutation in both H chains; also called Ho Ab
B2: GpH7-B3 variant Y296_04F/GpL16-k0 (antibody, human IgG1, kappa)
heavy: not shown
light: B1 light
notes: as for B1
B3: GpH7-B3 variant H268_02A/GpL16-k0 (antibody, human IgG1, kappa)
heavy: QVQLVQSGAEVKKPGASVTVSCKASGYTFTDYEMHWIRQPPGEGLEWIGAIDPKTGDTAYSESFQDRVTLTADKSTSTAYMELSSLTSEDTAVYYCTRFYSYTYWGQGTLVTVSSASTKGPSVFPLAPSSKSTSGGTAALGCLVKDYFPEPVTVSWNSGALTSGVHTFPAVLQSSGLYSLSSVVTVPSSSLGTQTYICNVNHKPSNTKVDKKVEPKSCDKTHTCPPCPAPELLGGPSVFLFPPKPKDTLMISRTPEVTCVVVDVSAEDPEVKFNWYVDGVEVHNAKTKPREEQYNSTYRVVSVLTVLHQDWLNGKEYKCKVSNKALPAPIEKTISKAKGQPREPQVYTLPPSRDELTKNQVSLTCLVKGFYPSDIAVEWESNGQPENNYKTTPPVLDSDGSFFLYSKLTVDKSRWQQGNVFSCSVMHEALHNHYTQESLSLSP
light: B1 light
notes: as for B1
B4: GpH7-B3 variant K326_06M/GpL16-k0 (antibody, human IgG1, kappa)
heavy: not shown
light: B1 light
notes: as for B1
B5: GpH7-B3 variant S337_20W/GpL16-k0 (antibody, human IgG1, kappa)
heavy: not shown
light: B1 light
notes: as for B1
B6: GpH7-B3 variant G236_03V/GpL16-k0 (antibody, human IgG1, kappa)
heavy: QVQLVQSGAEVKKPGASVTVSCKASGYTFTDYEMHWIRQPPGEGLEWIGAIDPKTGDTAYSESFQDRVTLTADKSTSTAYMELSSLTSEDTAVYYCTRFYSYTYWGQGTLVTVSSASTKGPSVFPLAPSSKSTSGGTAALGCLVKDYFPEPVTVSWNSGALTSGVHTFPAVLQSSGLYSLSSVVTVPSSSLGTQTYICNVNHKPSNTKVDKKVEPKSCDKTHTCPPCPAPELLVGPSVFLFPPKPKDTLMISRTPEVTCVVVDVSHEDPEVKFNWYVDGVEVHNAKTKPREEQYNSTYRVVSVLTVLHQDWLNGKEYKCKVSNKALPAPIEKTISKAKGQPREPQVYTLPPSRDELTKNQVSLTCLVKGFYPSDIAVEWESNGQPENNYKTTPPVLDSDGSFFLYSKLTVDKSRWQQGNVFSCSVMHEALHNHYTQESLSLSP
light: B1 light
notes: as for B1
B7: GpH7-B3 variant H268_19Q/GpL16-k0 (antibody, human IgG1, kappa)
heavy: not shown
light: B1 light
notes: as for B1
B8: GpH7-B3 variant H268_18N/GpL16-k0 (antibody, human IgG1, kappa)
heavy: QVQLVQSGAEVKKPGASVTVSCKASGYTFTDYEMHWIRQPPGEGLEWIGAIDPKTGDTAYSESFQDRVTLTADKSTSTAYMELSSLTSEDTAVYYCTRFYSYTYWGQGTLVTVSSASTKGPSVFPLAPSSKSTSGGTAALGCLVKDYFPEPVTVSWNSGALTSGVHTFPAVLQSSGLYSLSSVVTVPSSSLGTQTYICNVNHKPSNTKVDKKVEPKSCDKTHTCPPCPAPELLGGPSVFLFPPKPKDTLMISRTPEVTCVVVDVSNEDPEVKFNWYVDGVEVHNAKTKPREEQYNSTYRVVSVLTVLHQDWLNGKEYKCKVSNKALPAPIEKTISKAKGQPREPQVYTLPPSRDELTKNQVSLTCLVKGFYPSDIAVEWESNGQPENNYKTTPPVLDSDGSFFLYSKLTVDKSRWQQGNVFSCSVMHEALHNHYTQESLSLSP
light: B1 light
notes: as for B1
B9: GpH7-B3 variant G236_07I/GpL16-k0 (antibody, human IgG1, kappa)
heavy: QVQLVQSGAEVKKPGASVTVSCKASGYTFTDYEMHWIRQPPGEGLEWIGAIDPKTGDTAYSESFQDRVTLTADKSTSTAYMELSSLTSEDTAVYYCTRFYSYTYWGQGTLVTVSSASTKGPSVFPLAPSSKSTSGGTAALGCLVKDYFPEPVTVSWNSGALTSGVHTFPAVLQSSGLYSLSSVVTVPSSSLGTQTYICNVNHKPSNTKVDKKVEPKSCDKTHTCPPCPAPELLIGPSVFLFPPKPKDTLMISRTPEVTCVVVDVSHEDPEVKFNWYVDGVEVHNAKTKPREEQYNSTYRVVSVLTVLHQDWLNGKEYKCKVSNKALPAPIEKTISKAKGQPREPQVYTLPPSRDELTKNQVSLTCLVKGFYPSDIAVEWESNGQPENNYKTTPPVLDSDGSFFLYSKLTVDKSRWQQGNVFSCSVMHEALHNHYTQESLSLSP
light: B1 light
notes: as for B1
B10: GpH7-B3 variant K334_04F/GpL16-k0 (antibody, human IgG1, kappa)
heavy: not shown
light: B1 light
notes: as for B1
B11: GpH7-B3 variant A330_16H/GpL16-k0 (antibody, human IgG1, kappa)
heavy: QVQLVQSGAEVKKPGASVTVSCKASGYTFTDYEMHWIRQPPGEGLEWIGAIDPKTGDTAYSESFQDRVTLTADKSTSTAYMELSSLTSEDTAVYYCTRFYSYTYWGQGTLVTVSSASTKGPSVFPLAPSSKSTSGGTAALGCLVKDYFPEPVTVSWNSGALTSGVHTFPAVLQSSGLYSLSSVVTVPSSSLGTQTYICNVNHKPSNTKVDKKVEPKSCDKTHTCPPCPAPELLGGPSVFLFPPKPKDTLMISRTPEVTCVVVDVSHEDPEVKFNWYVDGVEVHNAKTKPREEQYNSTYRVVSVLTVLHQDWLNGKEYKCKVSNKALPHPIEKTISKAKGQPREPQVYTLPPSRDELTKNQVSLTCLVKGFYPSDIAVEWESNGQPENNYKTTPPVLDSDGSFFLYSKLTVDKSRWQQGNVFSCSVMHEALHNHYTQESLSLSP
light: B1 light
notes: as for B1
B12: GpH7-B3 variant Y296_09D/GpL16-k0 (antibody, human IgG1, kappa)
heavy: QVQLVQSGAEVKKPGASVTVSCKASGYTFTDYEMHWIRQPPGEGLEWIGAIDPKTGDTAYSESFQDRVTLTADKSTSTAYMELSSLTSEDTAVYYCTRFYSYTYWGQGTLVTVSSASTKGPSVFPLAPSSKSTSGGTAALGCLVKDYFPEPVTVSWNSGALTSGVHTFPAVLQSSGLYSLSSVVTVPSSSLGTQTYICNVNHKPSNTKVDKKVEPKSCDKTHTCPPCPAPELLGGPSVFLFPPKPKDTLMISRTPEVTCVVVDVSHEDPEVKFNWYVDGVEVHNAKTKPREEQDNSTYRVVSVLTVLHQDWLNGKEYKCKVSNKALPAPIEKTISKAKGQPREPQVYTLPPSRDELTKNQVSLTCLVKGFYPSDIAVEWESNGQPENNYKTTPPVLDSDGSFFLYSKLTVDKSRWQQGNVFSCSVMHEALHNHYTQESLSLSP
light: B1 light
notes: as for B1
B13: GpH7-B3 variant Y296_16H/GpL16-k0 (antibody, human IgG1, kappa)
heavy: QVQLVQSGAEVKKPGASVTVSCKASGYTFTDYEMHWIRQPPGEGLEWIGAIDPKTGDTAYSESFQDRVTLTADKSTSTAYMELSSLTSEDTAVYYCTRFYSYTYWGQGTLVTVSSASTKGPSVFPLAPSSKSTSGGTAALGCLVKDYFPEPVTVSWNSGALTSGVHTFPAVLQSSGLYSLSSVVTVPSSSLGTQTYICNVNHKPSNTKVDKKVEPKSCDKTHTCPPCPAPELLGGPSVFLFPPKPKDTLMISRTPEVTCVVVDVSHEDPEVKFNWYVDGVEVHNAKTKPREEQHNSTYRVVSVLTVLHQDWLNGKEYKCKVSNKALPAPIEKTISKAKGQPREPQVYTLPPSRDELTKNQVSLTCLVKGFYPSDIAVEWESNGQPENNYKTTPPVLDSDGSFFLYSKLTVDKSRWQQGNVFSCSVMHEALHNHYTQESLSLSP
light: B1 light
notes: as for B1
B14: GpH7-B3 variant T335_18N/GpL16-k0 (antibody, human IgG1, kappa)
heavy: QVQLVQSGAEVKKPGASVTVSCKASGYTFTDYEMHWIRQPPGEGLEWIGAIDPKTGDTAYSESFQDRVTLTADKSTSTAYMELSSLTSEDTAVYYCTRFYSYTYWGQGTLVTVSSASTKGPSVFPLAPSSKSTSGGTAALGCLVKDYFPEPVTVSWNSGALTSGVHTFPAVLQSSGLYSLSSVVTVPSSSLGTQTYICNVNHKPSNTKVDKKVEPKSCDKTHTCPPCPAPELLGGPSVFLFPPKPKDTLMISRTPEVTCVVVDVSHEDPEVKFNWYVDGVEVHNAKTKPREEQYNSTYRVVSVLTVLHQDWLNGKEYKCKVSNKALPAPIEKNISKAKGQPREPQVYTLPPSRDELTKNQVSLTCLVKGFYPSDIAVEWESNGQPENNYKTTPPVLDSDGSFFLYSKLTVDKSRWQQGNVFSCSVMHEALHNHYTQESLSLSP
light: B1 light
notes: as for B1
B15: GpH7-B3 variant I336_06M/GpL16-k0 (antibody, human IgG1, kappa)
heavy: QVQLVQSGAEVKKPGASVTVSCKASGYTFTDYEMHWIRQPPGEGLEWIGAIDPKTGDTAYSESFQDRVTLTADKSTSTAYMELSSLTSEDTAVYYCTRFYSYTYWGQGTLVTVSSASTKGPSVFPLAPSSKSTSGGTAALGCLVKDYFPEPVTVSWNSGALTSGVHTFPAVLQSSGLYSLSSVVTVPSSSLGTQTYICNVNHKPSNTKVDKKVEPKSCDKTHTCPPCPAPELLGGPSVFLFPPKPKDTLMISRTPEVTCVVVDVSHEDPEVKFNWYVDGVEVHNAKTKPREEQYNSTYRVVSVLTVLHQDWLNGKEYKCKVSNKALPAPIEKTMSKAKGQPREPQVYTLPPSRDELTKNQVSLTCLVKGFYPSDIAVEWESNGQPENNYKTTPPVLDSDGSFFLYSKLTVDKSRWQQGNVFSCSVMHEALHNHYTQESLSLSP
light: B1 light
notes: as for B1
B16: GpH7-B3 variant E333_09D/GpL16-k0 (antibody, human IgG1, kappa)
heavy: not shown
light: B1 light
notes: as for B1
B17: GpH7-B3 variant K326_10E/GpL16-k0 (antibody, human IgG1, kappa)
heavy: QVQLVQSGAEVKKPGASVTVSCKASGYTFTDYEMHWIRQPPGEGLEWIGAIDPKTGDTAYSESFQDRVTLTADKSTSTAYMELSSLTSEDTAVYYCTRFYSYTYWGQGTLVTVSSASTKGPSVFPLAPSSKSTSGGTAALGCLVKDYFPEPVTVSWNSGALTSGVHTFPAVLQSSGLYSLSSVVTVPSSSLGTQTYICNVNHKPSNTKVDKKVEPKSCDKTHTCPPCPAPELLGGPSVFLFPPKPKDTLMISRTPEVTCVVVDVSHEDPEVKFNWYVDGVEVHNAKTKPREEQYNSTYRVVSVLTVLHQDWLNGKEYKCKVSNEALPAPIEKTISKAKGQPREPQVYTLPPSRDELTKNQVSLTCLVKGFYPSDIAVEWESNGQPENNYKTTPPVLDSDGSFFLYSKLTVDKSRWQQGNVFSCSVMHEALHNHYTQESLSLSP
light: B1 light
notes: as for B1
B18: GpH7-B3 variant V266_08L/GpL16-k0 (antibody, human IgG1, kappa)
heavy: not shown
light: B1 light
notes: as for B1
B19: GpH7-B3 variant T335_20W/GpL16-k0 (antibody, human IgG1, kappa)
heavy: not shown
light: B1 light
notes: as for B1
B20: GpH7-B3 variant I336_08L/GpL16-k0 (antibody, human IgG1, kappa)
heavy: not shown
light: B1 light
notes: as for B1
B21: GpH7-B3 variant K326_19Q/GpL16-k0 (antibody, human IgG1, kappa)
heavy: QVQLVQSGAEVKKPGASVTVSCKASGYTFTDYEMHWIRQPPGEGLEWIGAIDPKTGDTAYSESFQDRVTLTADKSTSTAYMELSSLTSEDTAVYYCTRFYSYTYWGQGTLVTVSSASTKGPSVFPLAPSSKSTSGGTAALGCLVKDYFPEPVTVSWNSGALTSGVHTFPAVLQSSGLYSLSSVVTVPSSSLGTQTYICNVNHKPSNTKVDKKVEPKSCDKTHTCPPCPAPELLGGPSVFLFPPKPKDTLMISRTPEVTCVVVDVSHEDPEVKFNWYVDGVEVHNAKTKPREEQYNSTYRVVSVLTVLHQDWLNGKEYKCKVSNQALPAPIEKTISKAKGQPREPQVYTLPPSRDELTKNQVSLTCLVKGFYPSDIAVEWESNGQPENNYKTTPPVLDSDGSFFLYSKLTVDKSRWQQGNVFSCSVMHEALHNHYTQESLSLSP
light: B1 light
notes: as for B1

This assay deals with FcγRIIa H (human FcγRIIa, allotype with His at position 131), extracellular domain with C-terminal His tag (human, UniProt P12318 34-217). In words: SPR (Biacore), antibody captured on antigen peptide chip, FcγR as analyte; relative to HoCon Ab GpH7-B3/GpL16-k0 = 100. A general note: SPR reads the build-up and loss of mass on a sensor chip optically.
With B1, the Ho/Con_2aH came to 93.1 control = 100. In the case of B2, the Ho/Con_2aH amounted to 95 control = 100. For B3, the Ho/Con_2aH was 111 control = 100. B4: the Ho/Con_2aH came out at 101 control = 100. For B5, the Ho/Con_2aH is 96.6 control = 100. Consider B6, for which the Ho/Con_2aH stood at 111 control = 100. Then B7, with 102 control = 100; and B8, with 110 control = 100; and B9, with 101 control = 100. Take B10: the Ho/Con_2aH came to 103 control = 100. The figure for B11 is 101 control = 100; for B12 it is 99.9 control = 100.

For B13, the Ho/Con_2aH was 85.7 control = 100. As to B14, the Ho/Con_2aH turned out to be 98 control = 100. As to B15, the Ho/Con_2aH stood at 100 control = 100. The figure for B16 is 103 control = 100; for B17 it is 101 control = 100; for B18 it is 91.5 control = 100. The figure for B19 is 98.7 control = 100; for B20 it is 101 control = 100; for B21 it is 100 control = 100.
